We go through four molecules from US20060222644A1 (Biogen, published 2006).

Assay [1] deals with T1, lymphotoxin beta receptor (LT-β-R) (human, UniProt P36941 31-435).
T1 construct: whole, on cells; also called LT-β receptor
Description: FACS staining of HT-29 cells with purified antibody; reference huCBE11.

Assay [2] has as its target T1, lymphotoxin beta receptor (LT-β-R). The assay is described as follows: FACS of Protein A-purified antibodies on HT29 cells. On the procedure: Co-transfections of 293-EBNA cells with chBHA10 and huBHA10 Versions 1-4 were scaled up and conditioned medium was harvested. Antibody was purified on Protein A-Sepharose and purified mAbs were assayed for activity. Binding to the lymphotoxin-beta receptor was determined by FACS analysis of protein A-purified antibodies on the cell-line HT29.
HT29 cells were harvested by treatment with PBS containing 5 mM EDTA for 30 minutes followed by vigorous agitation. Cells were distributed to round-bottom 96-well plates at 2.5×10⁵ cells/well. Supernatants from 293-E cells transfected with BHA10 variants were added to the wells at the indicated dilutions in a total volume of 100 μl and incubated at 4° C. for 1 hour. The cells were washed twice with FACS buffer (PBS containing 5% FBS) and incubated with a 1:100 dilution of PE-conjugated anti-human heavy and light chain antibody (Jackson ImmunoResearch Laboratories) for 1 hour. The cells were then washed 3 times with FACS buffer and resuspended in 100 μl of PBS containing 1.0% paraformaldehyde. Samples were then transferred to the FACS facility for analysis. Protein A-purified antibodies from 293-E cells transfected with BHA10 variants were assayed at the indicated concentrations as shown in FIG. 2. The Protein A-purified CBE11 and 5C8 (anti-CD40L antibody) research standards were used as positive and negative controls, respectively. Rank ordering of binding activity was chBHA10=Version 4 huBHA10=Version 2 huBHA10>Version 3 huBHA10.

T1 sequence (P36941 31-435): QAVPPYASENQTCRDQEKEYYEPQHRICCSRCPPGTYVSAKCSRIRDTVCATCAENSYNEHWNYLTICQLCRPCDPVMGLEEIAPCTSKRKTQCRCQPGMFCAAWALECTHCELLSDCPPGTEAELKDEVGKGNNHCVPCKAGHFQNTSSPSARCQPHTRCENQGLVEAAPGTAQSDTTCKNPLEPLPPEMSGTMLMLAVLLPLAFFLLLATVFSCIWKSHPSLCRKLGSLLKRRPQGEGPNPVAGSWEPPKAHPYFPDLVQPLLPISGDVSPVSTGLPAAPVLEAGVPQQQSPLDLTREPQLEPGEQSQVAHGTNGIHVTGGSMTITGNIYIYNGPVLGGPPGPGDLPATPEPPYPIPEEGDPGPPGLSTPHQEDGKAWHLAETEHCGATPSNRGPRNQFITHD

B1: chimeric BHA10 (chBHA10) (antibody, human IgG1, V domains shown)
VH: QVQLQQSGPELVKPGASVRISCKASGYTFTTYYLHWVKQRPGQGLEWIGWIYPGNVHAQYNEKFKGKATLTADKSSSTAYMQLSSLTSEDSAIYFCARSWEGFPYWGQGTTVTVSS
VL: DIVMTQSQKFMSTSVGDRVSVTCKASQNVGINVAWYQQKPGQSPKSLISSASYRYSGVPDRFTGSGSGTDFTLTITNVQSEDLAEYFCQQYDTYPFTFGSGTKLEIK
notes: expressed in 293-EBNA cells; also called chBHA 0
Consider B1, for which the “apparent Kd, fold relative to huCBE11” value in assay [1] is about 2 fold.

B2: Version 4 huBHA10 (antibody, human IgG1, kappa, V domains shown)
VH: QVQLVQSGAEVKKPGSSVKVSCKASGYTFTTYYLHWVRQAPGQGLEWMGWIYPGNVHAQYNEKFKGRVTITADKSTSTAYMELSSLRSEDTAVYYCARSWEGFPYWGQGTTVTVSS
VL: DIQMTQSPSSLSASVGDRVTITCKASQNVGINVAWYQQKPGKAPKSLISSASYRYSGVPSRFSGSGSGTDFTLTISSLQPEDFATYFCQQYDTYPFTFGQGTKVEIKR
notes: Heavy chain #3 and Light chain #2; human IgG1/kappa; the 293-EBNA material from pKJS046 may still carry it; also called huBHA10 Version 4; humanized BHA10 antibody version 4
Turning to B2, the binding result in assay [2] was “binds”.

B3: Version 2 huBHA10 (antibody, human IgG1, V domains shown)
VH: QVQLVQSGAEVKKPGSSVKVSCKASGYTFTTYYLHWVRQAPGQGLEWIGWIYPGNVHAQYNEKFKGRATITADKSTSTAYMELSSLRSEDTAVYYCARSWEGFPYWGQGTTVTVSS
VL: DIQMTQSPSSLSASVGDRVTITCKASQNVGINVAWYQQKPGKAPKSLISSASYRYSGVPSRFSGSGSGTDFTLTISSLQPEDFATYFCQQYDTYPFTFGQGTKVEIKR
notes: also called huBHA10 Version 2
As to B3, the binding result in assay [2] is “binds”.

B4: Version 3 huBHA10 (antibody, human IgG1, V domains shown)
VH: QVQLVQSGAEVKKPGSSVKVSCKASGYTFTTYYLHWVRQAPGQGLEWMGWIYPGNVHAQYNEKFKGRVTITADKSTSTAYMELSSLRSEDTAVYYCARSWEGFPYWGQGTTVTVSS
VL: DIQMTQSPSSLSASVGDRVTITCKASQNVGINVAWFQQKPGKAPKSLISSASYRYSGVPSRFSGSGSGTDFTLTISSLQPEDFATYYCQQYDTYPFTFGQGTKVEIK
notes: the 293-EBNA material may still carry it; also called huBHA10 Version 3
As for B4, the binding result in assay [2] was “binds”.
